Measurements from paper PMC10952495, “Glycosylation increases active site rigidity leading to improved enzyme stability and turnover” (The Febs Journal, 2023).

Substrate: Nc1ccccc1N
Assay: purified protein
Assay type: biochemical, Armoracia rusticana
Details: 25.0 °C
[1] = holo enzyme 0.5 nM, 3% v/v H2O2, 50 mM Tris pH 8.0, 298 K
[2] = holo enzyme 10 nM, 3% v/v H2O2, 20 mM Bis-Tris pH 7.0, 298 K

B1: pHRP (plant horseradish peroxidase, glycosylated) (Armoracia rusticana) (protein)
chain: QLTPTFYDNSCPNVSNIVRDTIVNELRSDPRIAASILRLHFHDCFVNGCDASILLDNTTSFRTEKDAFGNANSARGFPVIDRMKAAVESACPRTVSCADLLTIAAQQSVTLAGGPSWRVPLGRRDSLQAFLDLANANLPAPFFTLPQLKDSFRNVGLNRSSDLVALSGGHTFGKNQCRFIMDRLYNFSNTGLPDPTLNTTYLQTLRGLCPLNGNLSALVDFDLRTPTIFDNKYYVNLEEQKGLIQSDQELFSSPNATDTIPLVRSFANSTQTFFNAFVEAMDRMGNITPLTGTQGQIRLNCRVVNSNS
notes: native from horseradish root, 8 N-linked glycans, clinical diagnostic grade (Ortho Clinical Diagnostics), with and without C-terminal serine, monomer
Work on B1 yielded a Km [1] of 920 ± 100 µM, a kcat [1] of 917 ± 53 s⁻¹ and a kcat/Km [1] of 1e+06 M⁻¹ s⁻¹.

B2: rHRP (recombinant horseradish peroxidase, nonglycosylated) (Armoracia rusticana) (protein)
chain: B1 chain
B2 showed a Km [2] of 980 ± 130 µM, a kcat [2] of 86.2 ± 4.7 s⁻¹ and a kcat/Km [2] of 88200 M⁻¹ s⁻¹.
